Here are results for 4 molecules from US20230331809A1 (Zymeworks, published 2023).

Assay [1] concerns the target T1, Mesothelin (MSLN) on OVCAR3 cells (UniProt Q13421 296-598).
T1 construct: whole, on cells
As to the kind of experiment: flow cytometry on OVCAR3 cells (MSLN), MFI; EC50 relative to v16417.

Assay [2] addresses T1, Mesothelin (MSLN) on OVCAR3 cells. Description: flow cytometry on OVCAR3 cells (MSLN), MFI.
The target of assay [3] is T2, CDH3 (Cadherin 3) on JIMT1 cells (UniProt P22223 108-829, limits assumed).
T2 construct: whole, on cells; also called P-cadherin
As to the kind of experiment: flow cytometry on JIMT1 cells (CDH3), MFI. On the technique in general: In flow cytometry, cells or beads pass a laser one at a time.

The target of assay [4] is T2, CDH3 (Cadherin 3) on JIMT1 cells. Description: flow cytometry on JIMT1 cells (CDH3), MFI; reference sample.
For assay [5], the target named is T3, CD3 (Cluster of Differentiation 3) on Jurkat cells and on pan T cells (human, UniProt P07766 23-207).
T3 construct: whole, on cells
Description: flow cytometry on human pan T cells, separate experiment (FIG. 32).

Assay [6] deals with PD-L1 (Programmed death-ligand 1) on cells (UniProt Q9NZQ7 19-290). Description: cell-based or functional assay.
Assay [7] has as its target T3, CD3 (Cluster of Differentiation 3) on …. As to the kind of experiment: flow cytometry on pan T cells (CD3), MFI.
Assay [8] concerns the target T2, CDH3 (Cadherin 3) on JIMT1 cells. Description: flow cytometry on JIMT1 cells (CDH3), MFI; EC50 relative to v17214.

In general, EC50 refers to the concentration giving half of the maximal effect.

B1: Variant 31729: HA PD-1:WT PD-L1 masked aMSLN Mab, PD-L1 cleavable (not treated with uPa) (antibody, human IgG1, kappa)
heavy: not shown
light: AFTVTVPKDLYVVEYGSNMTIECKFPVEKQLDLAALIVYWEMEDKNIIQFVHGEEDLKVQHSSYRQRARLLKDQLSLGNAALQITDVKLQDAGVYRCMISYGGADYKRITVKVNAEAAAKEAAAKMSGRSANADIQMTQSPSSLSASVGDRVTITCSASSSVSYMHWYQQKSGKAPKLLIYDTSKLASGVPSRFSGSGSGTDFTLTISSLQPEDFATYYCQQWSKHPLTFGQGTKLEIKRTVAAPSVFIFPPSDEQLKSGTASVVCLLNNFYPREAKVQWKVDNALQSGNSQESVTEQDSKDSTYSLSSTLTLSKADYEKHKVYACEVTHQGLSSPVTKSFNRGEC
With B1, in assay [1], the “Fold wrt WT (EC50)” value was 31 fold. In assay [2], this molecule showed an EC50 of 0.074 µM.

B2: Variant 17214: Unmasked aCDH3 mAb (antibody, human IgG1, lambda)
heavy: not shown
light: GQSALTQPASVSGSPGQSITISCTGTSNDVGAYNYVSWYQQHPGKAPKLMISEVNKRPSGVSNRFSGSKSGNTASLTISGLQAEDEADYYCSSFTSGLPWVVFGGGTKLTVLGQPKAAPSVTLFPPSSEELQANKATLVCLISDFYPGAVTVAWKADSSPVKAGVETTTPSKQSNNKYAASSYLSLTPEQWKSHRSYSCQVTHEGSTVEKTVAPTECS
The molecule B2 registered an EC50 in assay [3] of 0.00036 µM. In assay [4], the “Fold wrt WT” value turned out to be 1 fold.

B3: Variant 32497: Half-masked CD3 × Her2 Fab × scFv Fc, PD-1 KO attached to HC (bispecific antibody, human IgG1, kappa, L234A L235A)
heavy: not shown
light: DIQMTQSPSSLSASVGDRVTMTCSASSSVSYMNWYQQKPGKAPKRWIYDSSKLASGVPARFSGSGSGTDYTLTISSLQPEDFATYYCQQWSRNPPTFGGGTKLQITRTVAAPSVFIFPPSDEQLKSGTASVVCLLNNFYPREAKVQWKVDNALQSGNSQESVTEQDSKDSTYSLSSTLTLSKADYEKHKVYACEVTHQGLSSPVTKSFNRGEC
chain: not shown
notes: also called v32497; variant with a non-functional PD-1 domain appended to the heavy chain
On to B3, for which the “fold reduction in binding vs unmasked control” value in assay [5] worked out at 6 fold. The “TDCC potency on JIMT-1 target cells, fold EC50 vs unmasked v30421” value in assay [6] came out at 55 fold. Moreover, the EC50 in assay [7] turned out to be 0.013 µM.

B4: Variant 28662: HA PD-1:WT PD-L1 masked aCDH3 Mab, uncleavable (antibody, human IgG1, lambda)
heavy: not shown
light: AFTVTVPKDLYVVEYGSNMTIECKFPVEKQLDLAALIVYWEMEDKNIIQFVHGEEDLKVQHSSYRQRARLLKDQLSLGNAALQITDVKLQDAGVYRCMISYGGADYKRITVKVNAEAAAKEAAAKQSALTQPASVSGSPGQSITISCTGTSNDVGAYNYVSWYQQHPGKAPKLMISEVNKRPSGVSNRFSGSKSGNTASLTISGLQAEDEADYYCSSFTSGLPWVVFGGGTKLTVLGQPKAAPSVTLFPPSSEELQANKATLVCLISDFYPGAVTVAWKADSSPVKAGVETTTPSKQSNNKYAASSYLSLTPEQWKSHRSYSCQVTHEGSTVEKTVAPTECS
The molecule B4 yielded a 50% effective concentration (EC50) in assay [3] of 0.0098 µM. Also, in assay [8], the “Fold wrt WT” value was found to be 28 fold.
